{
  "source": "paper PMC5860782",
  "origin": "cited, not measured here",
  "target": "clathrin light chain (Saccharomyces cerevisiae) (UniProt P17891)",
  "sequence (P17891 whole entry)": "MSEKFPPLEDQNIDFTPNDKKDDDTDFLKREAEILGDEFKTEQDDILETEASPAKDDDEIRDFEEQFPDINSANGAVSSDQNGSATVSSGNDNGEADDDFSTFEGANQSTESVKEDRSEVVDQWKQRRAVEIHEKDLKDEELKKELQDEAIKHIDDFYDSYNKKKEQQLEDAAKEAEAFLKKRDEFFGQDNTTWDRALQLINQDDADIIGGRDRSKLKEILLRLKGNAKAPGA",
  "data": [
    {"substance": "clathrin heavy chain (from UniProt P22137)", "values": [
      {"measurement": "Kd", "result": 1, "unit": "nM"}
    ]}
  ]
}
